Assay results: patent US20250264483A1, “IDENTIFICATION OF PROTHROMBOTIC CONDITIONS” (Sydney Local Health District, priority 2020, published 2025)

Test system: healthy donor platelets
Assay: Procoagulant platelet flow cytometry assay, healthy donor whole blood with VITT patient plasma
Assay type: cell-based, human
Conditions: exogenous purified human PF4 25 μg/mL, VITT positive (n=6) and negative (n=8) cases (FIG. 12A)

B1: PF4: native human PF4 purified from expired platelet concentrate (protein, UniProt P02776 32-101, looked up)
Platelet factor 4: EAEEDGDLQCLCVKTTSQVRPRHITSLEVIKAGPHCPTAQLIATLKNGRKICLDLQAPLYKKIIKKLLES
effect on flow cytometry assay results: did not alter the results
